Test results published in US20240409647A1 (SINOMAB BIOSCIENCE, published 2024).

What was measured:
[1] = molecular target: T1, human IL-17RB protein (recombinant, R&D systems) (human); experiment: ELISA, coated receptor; SM17 at 0.0032 µg/mL; well 2
T1 construct: Bought protein; also called hIL17RB
T1 sequence (Q9NRM6 whole entry, looked up): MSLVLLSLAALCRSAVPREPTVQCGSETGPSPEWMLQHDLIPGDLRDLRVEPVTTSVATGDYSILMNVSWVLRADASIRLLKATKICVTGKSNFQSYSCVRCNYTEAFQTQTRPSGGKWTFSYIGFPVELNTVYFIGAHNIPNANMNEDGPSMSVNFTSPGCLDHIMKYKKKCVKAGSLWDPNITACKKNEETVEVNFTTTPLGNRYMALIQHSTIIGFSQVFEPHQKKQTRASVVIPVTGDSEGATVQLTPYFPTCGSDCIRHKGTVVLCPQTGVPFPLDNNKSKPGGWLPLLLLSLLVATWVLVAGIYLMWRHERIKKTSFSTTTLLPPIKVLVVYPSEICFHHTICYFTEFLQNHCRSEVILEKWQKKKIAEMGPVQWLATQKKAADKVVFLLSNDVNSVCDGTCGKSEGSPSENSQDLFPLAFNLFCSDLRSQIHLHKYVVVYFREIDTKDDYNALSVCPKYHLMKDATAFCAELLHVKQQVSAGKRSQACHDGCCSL

[2] = molecular target: T2, human IL-17 receptor subunit A (human, UniProt Q96F46 33-320); experiment: as above
T2 construct: also called IL17RA; hIL17RA

[3] = molecular target: T3, human IL-17 receptor subunit C (human, UniProt Q8NAC3-2 21-467, limits assumed); experiment: as above
T3 construct: also called IL17RC; hIL17RC
T3 sequence (looked up): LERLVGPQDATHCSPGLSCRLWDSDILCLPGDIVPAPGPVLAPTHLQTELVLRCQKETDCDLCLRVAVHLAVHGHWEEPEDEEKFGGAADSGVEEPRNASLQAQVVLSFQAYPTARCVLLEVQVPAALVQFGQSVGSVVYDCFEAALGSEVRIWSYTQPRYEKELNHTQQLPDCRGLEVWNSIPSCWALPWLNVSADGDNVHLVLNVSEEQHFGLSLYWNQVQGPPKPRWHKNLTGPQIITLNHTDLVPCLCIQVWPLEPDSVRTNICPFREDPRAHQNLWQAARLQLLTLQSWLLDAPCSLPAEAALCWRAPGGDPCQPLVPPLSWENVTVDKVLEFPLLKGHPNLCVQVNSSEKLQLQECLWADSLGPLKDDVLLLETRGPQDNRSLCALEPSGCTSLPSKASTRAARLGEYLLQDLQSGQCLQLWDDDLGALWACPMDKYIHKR

[4] = molecular target: T4, human IL-17 receptor subunit D (human, UniProt Q8NFM7 28-299, limits assumed); experiment: as above
T4 construct: also called IL17RD; hIL 17RD
T4 sequence (looked up): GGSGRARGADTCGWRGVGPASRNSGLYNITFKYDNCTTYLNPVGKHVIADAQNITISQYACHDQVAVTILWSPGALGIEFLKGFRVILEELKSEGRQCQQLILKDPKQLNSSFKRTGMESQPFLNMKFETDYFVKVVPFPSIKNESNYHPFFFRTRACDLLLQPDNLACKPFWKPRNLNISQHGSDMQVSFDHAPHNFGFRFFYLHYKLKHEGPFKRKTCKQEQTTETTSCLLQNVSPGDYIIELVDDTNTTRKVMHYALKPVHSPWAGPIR

[5] = molecular target: T5, human IL-17 receptor subunit E (human, UniProt Q8NFR9 24-454, limits assumed); experiment: as above
T5 construct: also called hIL17RE
T5 sequence (looked up): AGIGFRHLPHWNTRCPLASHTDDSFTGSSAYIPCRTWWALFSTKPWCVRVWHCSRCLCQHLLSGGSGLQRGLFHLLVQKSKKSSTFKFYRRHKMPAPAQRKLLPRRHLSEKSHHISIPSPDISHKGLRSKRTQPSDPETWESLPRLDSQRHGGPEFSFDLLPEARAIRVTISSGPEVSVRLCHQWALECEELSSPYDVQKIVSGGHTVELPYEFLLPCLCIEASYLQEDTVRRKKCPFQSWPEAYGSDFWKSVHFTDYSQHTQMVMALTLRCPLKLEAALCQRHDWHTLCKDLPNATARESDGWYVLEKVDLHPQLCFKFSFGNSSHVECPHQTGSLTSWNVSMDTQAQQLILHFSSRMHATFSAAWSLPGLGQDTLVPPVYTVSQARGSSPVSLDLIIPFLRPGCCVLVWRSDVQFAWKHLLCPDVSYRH

[6] = molecular target: T4, human IL-17 receptor subunit D; experiment: ELISA, coated receptor; SM17 at 0.00064 µg/mL; well 1
[7] = molecular target: T1, human IL-17RB protein (recombinant, R&D …); experiment: ELISA, coated receptor; SM17 at 0.00064 µg/mL; well 2
[8] = molecular target: T2, human IL-17 receptor subunit A; experiment: as above
[9] = molecular target: T3, human IL-17 receptor subunit C; experiment: as above
[10] = molecular target: T4, human IL-17 receptor subunit D; experiment: as above
[11] = molecular target: T5, human IL-17 receptor subunit E; experiment: as above
[12] = molecular target: T6, human IL-33 (R&D systems) (human, UniProt O95760 112-270); experiment: ELISA on coated human IL-33 (2 ug/mL), goat anti-human F(ab')2-HRP [panel 'Binding affinity to human IL-33']
T6 sequence (looked up): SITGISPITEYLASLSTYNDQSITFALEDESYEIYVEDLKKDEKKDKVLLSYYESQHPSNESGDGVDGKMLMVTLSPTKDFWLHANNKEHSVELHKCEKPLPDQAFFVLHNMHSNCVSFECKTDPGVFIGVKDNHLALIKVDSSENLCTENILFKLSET

B1: SM17 (antibody, human IgG4 S228P, kappa, V domains shown)
VH: QVQLVQSGAEVKKPGASVKVSCKASGYTFISYWMNWVRQAPGQGLEWMGRIDPYDSEIQYNQKFKDRVTMTRDTSISTAYMELSRLRSDDTAVYYCARSGGFDWFAYWGQGTLVTVSS
VL: DIQMTQSPSSLSASVGDRVTITCRASENINSNLAWYQQKPGKAPKLLLYDVTNLADGVPSRFSGSGSGTDYTLTISSLQPEDFATYYCQHFWGPPYTFGGGTKVEIKR
notes: other paragraphs and claim 15 call the same entries VH and VL; also called humanized anti-IL17RB monoclonal antibody
[1]
  OD 450 nm Absorption: 0.07 OD450
[2]
  OD 450 nm Absorption: -0.03 OD450
[3]
  OD 450 nm Absorption: -0.04 OD450
[4]
  OD 450 nm Absorption: -0.04 OD450
[5]
  OD 450 nm Absorption: -0.02 OD450
[6]
  OD 450 nm Absorption: 0.08 OD450
[7]
  OD 450 nm Absorption: 0.07 OD450
[8]
  OD 450 nm Absorption: 0.05 OD450
[9]
  OD 450 nm Absorption: 0.08 OD450
[10]
  OD 450 nm Absorption: 0.02 OD450
[11]
  OD 450 nm Absorption: -0.16 OD450
[12]
  binding result: no binding
